Three molecules from paper PMC3544317 (2014) can be followed below.

The target of experiment [1] is T1, FVa (FVa2) (Homo sapiens, UniProt P12259).
T1 chain 1: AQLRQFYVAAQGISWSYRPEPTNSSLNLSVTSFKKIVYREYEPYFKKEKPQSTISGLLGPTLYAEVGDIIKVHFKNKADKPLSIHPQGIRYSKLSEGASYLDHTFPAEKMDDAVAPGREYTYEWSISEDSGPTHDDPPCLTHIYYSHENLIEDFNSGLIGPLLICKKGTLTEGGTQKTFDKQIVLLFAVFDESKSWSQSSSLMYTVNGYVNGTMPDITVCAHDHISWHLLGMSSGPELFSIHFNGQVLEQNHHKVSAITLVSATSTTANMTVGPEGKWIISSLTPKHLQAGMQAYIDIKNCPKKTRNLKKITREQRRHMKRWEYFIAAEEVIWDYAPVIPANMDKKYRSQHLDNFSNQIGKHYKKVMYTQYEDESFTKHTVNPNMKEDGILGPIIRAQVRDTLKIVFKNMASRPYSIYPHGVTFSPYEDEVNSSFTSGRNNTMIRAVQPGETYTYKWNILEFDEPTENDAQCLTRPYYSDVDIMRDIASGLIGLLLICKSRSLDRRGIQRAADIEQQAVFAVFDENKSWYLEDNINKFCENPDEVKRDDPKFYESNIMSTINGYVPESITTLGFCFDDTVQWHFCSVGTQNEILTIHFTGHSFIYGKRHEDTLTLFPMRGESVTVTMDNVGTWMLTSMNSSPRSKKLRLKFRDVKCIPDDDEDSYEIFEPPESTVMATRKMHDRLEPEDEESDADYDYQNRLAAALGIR
T1 chain 2: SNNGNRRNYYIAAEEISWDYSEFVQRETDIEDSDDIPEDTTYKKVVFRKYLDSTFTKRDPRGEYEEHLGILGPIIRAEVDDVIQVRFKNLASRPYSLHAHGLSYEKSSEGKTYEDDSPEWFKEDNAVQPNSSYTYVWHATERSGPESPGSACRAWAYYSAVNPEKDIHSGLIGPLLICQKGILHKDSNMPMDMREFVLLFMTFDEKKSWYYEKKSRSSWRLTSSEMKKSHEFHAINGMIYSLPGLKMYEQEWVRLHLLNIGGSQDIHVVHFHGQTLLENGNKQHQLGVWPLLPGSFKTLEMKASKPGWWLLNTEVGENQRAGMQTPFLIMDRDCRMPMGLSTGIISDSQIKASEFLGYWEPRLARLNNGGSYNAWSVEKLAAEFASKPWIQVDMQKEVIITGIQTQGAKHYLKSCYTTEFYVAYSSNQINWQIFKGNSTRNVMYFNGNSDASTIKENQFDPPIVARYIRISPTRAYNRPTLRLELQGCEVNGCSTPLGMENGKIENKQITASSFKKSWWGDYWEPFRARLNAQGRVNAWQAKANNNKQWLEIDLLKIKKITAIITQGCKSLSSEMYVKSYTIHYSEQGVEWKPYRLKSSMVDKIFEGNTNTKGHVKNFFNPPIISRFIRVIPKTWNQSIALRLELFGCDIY
The experiment can be described thus: prothrombinase activity titration.

Experiment [2] deals with T1, FVa (FVa2). The experiment can be described thus: global fit of activity, dimer competition model.
For experiment [3], the target named is T1, FVa (FVa2). The experiment can be described thus: prothrombinase activity titration.
The target of experiment [4] is T1, FVa (FVa2). The experiment in a line: prothrombinase activity titration.
Experiment [5] concerns the target T1, FVa (FVa2). The experiment in a line: global fit of activity.
The next experiment concerns the target T2, FXa (Homo sapiens, UniProt P00742).
T2 chain 1: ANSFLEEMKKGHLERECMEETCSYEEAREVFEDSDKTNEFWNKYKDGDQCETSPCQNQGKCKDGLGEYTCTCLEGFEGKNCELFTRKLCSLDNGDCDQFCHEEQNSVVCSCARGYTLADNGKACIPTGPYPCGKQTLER
T2 chain 2: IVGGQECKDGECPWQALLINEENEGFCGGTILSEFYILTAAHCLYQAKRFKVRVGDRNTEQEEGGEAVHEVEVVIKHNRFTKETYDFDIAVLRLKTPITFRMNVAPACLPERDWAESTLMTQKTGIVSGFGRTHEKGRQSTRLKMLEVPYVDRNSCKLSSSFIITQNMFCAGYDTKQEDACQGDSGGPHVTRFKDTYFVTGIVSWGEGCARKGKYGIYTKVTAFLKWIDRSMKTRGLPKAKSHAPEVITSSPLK
The experiment can be described thus: prothrombin activation rate vs FXa.

Another experiment concerns the target T3, DEGR-FXa (Homo sapiens, UniProt P00742).
T3 chain 1: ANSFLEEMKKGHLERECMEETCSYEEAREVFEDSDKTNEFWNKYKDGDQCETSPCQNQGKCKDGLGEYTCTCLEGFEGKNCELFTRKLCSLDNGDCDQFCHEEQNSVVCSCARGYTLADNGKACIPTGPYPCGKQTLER
T3 chain 2: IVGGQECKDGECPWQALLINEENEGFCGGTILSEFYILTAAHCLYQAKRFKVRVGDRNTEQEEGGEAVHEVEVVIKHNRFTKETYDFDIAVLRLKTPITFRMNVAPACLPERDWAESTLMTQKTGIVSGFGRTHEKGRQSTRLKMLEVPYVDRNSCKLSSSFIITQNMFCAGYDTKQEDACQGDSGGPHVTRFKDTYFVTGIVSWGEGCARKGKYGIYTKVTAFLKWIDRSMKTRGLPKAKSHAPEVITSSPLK
The experiment can be described thus: fluorescence of active-site-labeled FXa.

B1: FXa (protein)
chain 1: ANSFLEEMKKGHLERECMEETCSYEEAREVFEDSDKTNEFWNKYKDGDQCETSPCQNQGKCKDGLGEYTCTCLEGFEGKNCELFTRKLCSLDNGDCDQFCHEEQNSVVCSCARGYTLADNGKACIPTGPYPCGKQTLER
chain 2: IVGGQECKDGECPWQALLINEENEGFCGGTILSEFYILTAAHCLYQAKRFKVRVGDRNTEQEEGGEAVHEVEVVIKHNRFTKETYDFDIAVLRLKTPITFRMNVAPACLPERDWAESTLMTQKTGIVSGFGRTHEKGRQSTRLKMLEVPYVDRNSCKLSSSFIITQNMFCAGYDTKQEDACQGDSGGPHVTRFKDTYFVTGIVSWGEGCARKGKYGIYTKVTAFLKWIDRSMKTRGLPKAKSHAPEVITSSPLK
modifications: C6PS, 5 mM Ca2+
By Kd is commonly meant the constant that tells how readily two partners part at equilibrium. A higher Kd goes with lower affinity. As for B1, the Kd with FVa (FVa2) [1] is 20 nM; in the experiment with FVa (FVa2) [2], 0.32 nM; with FVa (FVa2) [3] it was 43 nM; with FVa (FVa2) [4], 2.2 nM; in the experiment with FVa (FVa2) [5], 0.43 nM; in the experiment with FXa, 16 nM.

B2: FXa (protein)
chain 1: ANSFLEEMKKGHLERECMEETCSYEEAREVFEDSDKTNEFWNKYKDGDQCETSPCQNQGKCKDGLGEYTCTCLEGFEGKNCELFTRKLCSLDNGDCDQFCHEEQNSVVCSCARGYTLADNGKACIPTGPYPCGKQTLER
chain 2: IVGGQECKDGECPWQALLINEENEGFCGGTILSEFYILTAAHCLYQAKRFKVRVGDRNTEQEEGGEAVHEVEVVIKHNRFTKETYDFDIAVLRLKTPITFRMNVAPACLPERDWAESTLMTQKTGIVSGFGRTHEKGRQSTRLKMLEVPYVDRNSCKLSSSFIITQNMFCAGYDTKQEDACQGDSGGPHVTRFKDTYFVTGIVSWGEGCARKGKYGIYTKVTAFLKWIDRSMKTRGLPKAKSHAPEVITSSPLK
modifications: C6PS, 3 mM Ca2+
B2: the Kd with FVa (FVa2) [3] turned out to be 8 nM; in the experiment with FVa (FVa2) [4], 1.7 nM.

B3: DEGR-FXa (protein)
chain 1: ANSFLEEMKKGHLERECMEETCSYEEAREVFEDSDKTNEFWNKYKDGDQCETSPCQNQGKCKDGLGEYTCTCLEGFEGKNCELFTRKLCSLDNGDCDQFCHEEQNSVVCSCARGYTLADNGKACIPTGPYPCGKQTLER
chain 2: IVGGQECKDGECPWQALLINEENEGFCGGTILSEFYILTAAHCLYQAKRFKVRVGDRNTEQEEGGEAVHEVEVVIKHNRFTKETYDFDIAVLRLKTPITFRMNVAPACLPERDWAESTLMTQKTGIVSGFGRTHEKGRQSTRLKMLEVPYVDRNSCKLSSSFIITQNMFCAGYDTKQEDACQGDSGGPHVTRFKDTYFVTGIVSWGEGCARKGKYGIYTKVTAFLKWIDRSMKTRGLPKAKSHAPEVITSSPLK
modifications: DEGR active-site label, C6PS, 3 mM Ca2+
In the experiment with DEGR-FXa, B3 registered a Kd of 600 nM.
